For orientation: Kd means the constant that tells how readily two partners part at equilibrium. As usually defined, the koff is the first-order rate constant of dissociation. A high value points to fast dissociation. The term kon denotes the rate constant with which the complex forms. High values mean fast association, low ones slow association.

Residue numbers refer to the chain shown, from its start. Names and notes keep the numbering of the source.

The values below come from patent US20210115124A1 (Genentech, published 2021).

Assay [1] addresses T1, human VEGF (hVEGF) (human, UniProt P15692 181-395).
T1 construct: also called VEGF-A
T1 sequence: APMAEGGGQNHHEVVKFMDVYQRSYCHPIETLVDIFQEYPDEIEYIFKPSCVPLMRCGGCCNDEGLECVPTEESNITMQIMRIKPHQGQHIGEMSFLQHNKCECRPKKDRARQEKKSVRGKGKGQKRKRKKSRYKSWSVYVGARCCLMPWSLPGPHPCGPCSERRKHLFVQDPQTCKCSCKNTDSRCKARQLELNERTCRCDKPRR
Description: SPR. A general note: In SPR one partner is held on a chip, and binding of the other changes the refractive index at the surface.
Description: (§1) To determine the binding affinity of selected Fab variants, SPR measurement with a BIACORE® T200 instrument was used. Briefly, series S sensor chip CM5 was activated with 1-ethyl-3-(3-dimethylaminopropyl) carbodiimide (EDC) and N-hydroxysuccinimide (NHS) reagents according to the supplier's instructions, and human VEGF (hVEGF) was coupled to achieve 50-80 response units (RU), then following by blocking un-reacted groups with 1M ethanolamine.
(§2) Three-fold serial dilutions of Fab in HBS-P buffer (0.01 M HEPES pH 7.4, 0.15 M NaCl, 0.005% surfactant P20) from low (0.02 nM) to high (50 nM) were injected (flow rate: 30 μl/min). The binding responses on hVEGF were corrected by subtracting of RU from a blank flow cell. The sensorgram was recorded and subject to reference and buffer subtraction before evaluating by BIACORE® T200 Evaluation Software (version 2.0). Association rates (kₒₙ) and dissociation rates (koff) were calculated using a simple one-to-one Langmuir binding model. The equilibrium dissociation constant (Kd) was calculated as the ratio koff/kₒₙ.

The target in assay [2] is T1, human VEGF (hVEGF). Put plainly: SPR. The source holds these as a separate data set.
Description: as §1, §2
The target of assay [3] is T1, human VEGF (hVEGF). Put plainly: SPR. The source holds these as a separate data set.
Description: as §1, §2
For assay [4], the target named is T1, human VEGF (hVEGF). Put plainly: SPR single-cycle.
In assay [5] the target is T1, human VEGF (hVEGF). Put plainly: SPR multiple-cycle.
Description: as §1, §2

B1: G6.31 HC-A40E, HC-T57E (Fab, V domains shown)
VH: EVQLVESGGGLVQPGGSLRLSCAASGFTISDYWIHWVRQEPGKGLEWVAGITPAGGYEYYADSVKGRFTISADTSKNTAYLQMNSLRAEDTAVYYCARFVFFLPYAMDYWGQGTLVTVSS
VL: DIQMTQSPSSLSASVGDRVTITCRASQDVSTAVAWYQQKPGKAPKLLIYSASFLYSGVPSRFSGSGSGTDFTLTISSLQPEDFATYYCQQGYGNPFTFGQGTKVEIK
notes: Fab
As to B1, in assay [1], binding was characterised by a dissociation constant (Kd) of 0.272 nM, the koff was found to be 0.000804 s⁻¹ and the kon turned out to be 2.96e+06 M⁻¹ s⁻¹.

B2: HCLC3 (Fab, V domains shown)
VH: B1 VH with V2E, S7E, G16E, R19E, T28E, K43E, K65E, K76E, S85E, T114E
VL: B1 VL with S9E, R18E, K42E, F83A, N94A
notes: Fab
As to B2, in assay [2], the affinity, expressed as Kd, was 0.33 nM; the koff turned out to be 0.000608 s⁻¹; the kon was found to be 1.84e+06 M⁻¹ s⁻¹. In assay [3], this molecule gave a Kd of 0.33 nM, a dissociation rate constant (koff) of 0.000608 s⁻¹ and an association rate constant (kon) of 1.84e+06 M⁻¹ s⁻¹.

B3: R19HCLC5 (Fab, V domains shown)
VH: B1 VH with V2E, S7E, G16E, T28E, K43E, K65E, K76E, S85E, T114E
VL: B1 VL with F83A, N94A
notes: Fab
In assay [2], B3 displayed an equilibrium dissociation constant (Kd) of 0.0624 nM, an off-rate constant (koff) of 4.41e-05 s⁻¹ and an association rate constant (kon) of 707000 M⁻¹ s⁻¹. In assay [3], this molecule had a Kd of 0.062 nM, a koff of 4.41e-05 s⁻¹ and a kon of 707000 M⁻¹ s⁻¹.

B4: HCLC1 (Fab, V domains shown)
VH: B1 VH with V2E, S7E, G16E, R19E, T28E, K43E, K65E, K76E, S85E, T114E
VL: B1 VL with S9E, R18E, F83A, N94A
notes: Fab
In assay [2], B4 returned a Kd of 0.442 nM, a koff of 0.000607 s⁻¹ and a kon of 1.37e+06 M⁻¹ s⁻¹. In assay [3], this molecule gave a dissociation constant Kd of 0.442 nM, a koff of 0.000607 s⁻¹ and a kon of 1.37e+06 M⁻¹ s⁻¹.

B5: HCLC4 (Fab, V domains shown)
VH: B1 VH with V2E, S7E, G16E, R19E, T28E, K43E, K65E, K76E, S85E, T114E
VL: B1 VL with R18E, F83A, N94A
notes: Fab
Consider B5, for which, in assay [2], binding was put at a Kd of 0.299 nM, the off-rate constant (koff) was 0.000608 s⁻¹ and the kon is 2.03e+06 M⁻¹ s⁻¹. In assay [3], binding was characterised by a dissociation constant (Kd) of 0.299 nM, the koff turned out to be 0.000608 s⁻¹ and the on-rate constant (kon) came out at 2.03e+06 M⁻¹ s⁻¹.

B6: R19HCLC4 (Fab, V domains shown)
VH: B1 VH with V2E, S7E, G16E, T28E, K43E, K65E, K76E, S85E, T114E
VL: B1 VL with R18E, F83A, N94A
notes: Fab
B6: in assay [2], the dissociation constant Kd came out at 0.169 nM, the koff stood at 4.79e-05 s⁻¹ and the kon stood at 284000 M⁻¹ s⁻¹. In addition, in assay [3], the affinity, expressed as Kd, was 0.169 nM; the koff was found to be 4.79e-05 s⁻¹; the kon is 284000 M⁻¹ s⁻¹.

B7: HCLC5 (Fab, V domains shown)
VH: B1 VH with V2E, S7E, G16E, R19E, T28E, K43E, K65E, K76E, S85E, T114E
VL: B1 VL with F83A, N94A
notes: Fab
B7: in assay [2], the Kd is 0.316 nM, the koff worked out at 0.000573 s⁻¹ and the kon worked out at 1.81e+06 M⁻¹ s⁻¹. In assay [3], this molecule displayed a Kd of 0.316 nM, an off-rate (koff) of 0.000573 s⁻¹ and a kon of 1.81e+06 M⁻¹ s⁻¹.

B8: HCLC2 (Fab, V domains shown)
VH: B1 VH with V2E, S7E, G16E, R19E, T28E, K43E, K65E, K76E, S85E, T114E
VL: B1 VL with R18E, K42E, S76E, F83A, N94A
notes: Fab
On to B8, for which, in assay [2], binding was put at a Kd of 0.293 nM, the koff was determined as 0.000623 s⁻¹ and the kon was 2.12e+06 M⁻¹ s⁻¹. In assay [3], this molecule registered a Kd of 0.293 nM, a koff of 0.000623 s⁻¹ and a kon of 2.12e+06 M⁻¹ s⁻¹.

B9: R19HCLC2 (Fab, V domains shown)
VH: B1 VH with V2E, S7E, G16E, T28E, K43E, K65E, K76E, S85E, T114E
VL: B1 VL with R18E, K42E, S76E, F83A, N94A
notes: Fab
Turning to B9, in assay [2], the koff was 4.67e-05 s⁻¹ and the kon was found to be 889000 M⁻¹ s⁻¹. In assay [3], this molecule had a koff of 4.67e-05 s⁻¹ and a kon of 889000 M⁻¹ s⁻¹.

B10: LCcombo3 (G6.31 WT VH with LCcombo3 VL) (Fab, V domains shown)
VH: B1 VH with E40A, E58T
VL: B1 VL with S9E, R18E, K42E, F83A, N94A
notes: Fab
Regarding B10, in assay [2], the Kd was 1.34 nM, the off-rate constant (koff) was 0.000768 s⁻¹ and the kon was 574000 M⁻¹ s⁻¹.

B11: G6.31 LC-Q89N (Fab, V domains shown)
VH: B1 VH with E40A, E58T
VL: B1 VL with Q89N
notes: Fab
Regarding B11, in assay [4], the “Fold difference (relative to G6.31)” value turned out to be 3.5 fold, binding was put at a Kd of 0.44 nM, the koff is 0.000435 s⁻¹ and the kon is 991000 M⁻¹ s⁻¹.

B12: G6.31 LC-N94R (Fab, V domains shown)
VH: B1 VH with E40A, E58T
VL: B1 VL with N94R
notes: Fab
On to B12, for which, in assay [5], binding was characterised by a dissociation constant (Kd) of 2.09 nM, the koff was found to be 0.000407 s⁻¹ and the kon came to 194000 M⁻¹ s⁻¹.
